1 substance from article PMC8142631 can be followed below.

Experiment [1] addresses endogenous EPCR expressed on EA.hy926 cells (human (endogenous in EA.hy926)) (UniProt Q9UNN8). Nature of the experiment: binding to cells, read-out not stated.
For experiment [2], the target named is Soluble wild-type EPCR (endothelial protein C receptor) (UniProt Q9UNN8).
The target in experiment [3] is E86A-sEPCR (soluble EPCR variant) (UniProt Q9UNN8). Put plainly: ELISA. (In general: ELISA stands for enzyme-linked immunosorbent assay.)
Experiment [4] deals with Soluble wild-type EPCR (endothelial protein C receptor) (UniProt Q9UNN8). Put plainly: ELISA.
Experiment [5] concerns the target endogenous EPCR expressed on EA.hy926 cells (human (endogenous in EA.hy926)) (UniProt Q9UNN8). Nature of the experiment: on-cell western.

For “recombinant CIDRα1.1 domain derived from FCR3 IT4VAR20 PfEMP1 (domain or fragment)”, the CIDRα1.1 concentration at complete inhibition of APC binding to endothelial EPCR in experiment [1] turned out to be 100 nM. Also, the IC50 (as a rule, the concentration that inhibits the measured activity by half) in experiment [1] was 33 nM; in experiment [2], 12.5 nM. The same substance gave a CIDRα1.1 concentration at complete inhibition of APC binding to sEPCR in experiment [2] of 50 nM. For the same substance, the Kd (as a rule, the free concentration of one partner at which half of the binding sites on the other are occupied at equilibrium, for simple one-to-one binding) in experiment [3] worked out at 4.4 nM; in experiment [4], 4.3 nM; in experiment [5], 8 nM.
